Assay results as given in the supplement of paper PMC12764529.
± gives the half width of the 95% confidence interval.

Experiments:
[1] = folding stability dG unfold (combined trypsin and chymotrypsin); higher = more stable
Summary of the method: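 K50 was inferred by Bayesian fitting of sequencing counts obtained after protease digestion of designed mini-proteins. Unfolding free energy was derived by comparison with a sequence-predicted unfolded-state K50 and a shared folded-state K50, for each protease or both combined. The mini-proteins were under 80 residues, had no cysteine, were carried in a PA-tagged cDNA display construct, and were kept only if AlphaFold2 dimer inter-PAE exceeded 15.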

[2] = folding stability dG unfold from chymotrypsin proteolysis; higher = more stable
Procedure: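 Folding stability of de novo designed mini-proteins (<80 aa, no Cys; designed by TrROS, TrMRF, ProteinMPNN and the joint model) was measured by cDNA display proteolysis with trypsin and chymotrypsin. Each protease was used at 11 concentrations in a threefold dilution series plus a no-protease condition. K50 was inferred by Bayesian fitting of sequencing counts, and dG unfold was derived against a sequence-predicted unfolded-state K50 (Tsuboyama et al. method). Sequences shown include variable-length N-terminal GS-type padding (SAGGSAGG...) inside a display construct carrying a PA tag. Rows were kept only if the AF2 dimer inter-PAE was >15, to exclude likely homo-oligomers.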

| Sequence | folding stability dG unfold [1] | folding stability dG unfold [2] |
| --- | --- | --- |
| SAGGSAGGSAIPPDAPVEVPVRVRVGGEEFDVTATLTARPDGSVGVDVDVDVPADEAEIEPASAGGSAGGSA [r18_428_TrMRF] | < -1 kcal/mol | 0.118 ± 0.32 kcal/mol |
| SAGGSAGGSAKAKVLEVEEKPVGGVNRFKIEVPLENGEPQKFYVLVEVPEDGDEKFAVKPGSAGGSAGGSAG [r3_94_TrMRF] | -0.319 ± 0.18 kcal/mol | 0.1 ± 0.16 kcal/mol |
| SAGGSAGGSAKKLKIPNPDGKTYEMKVEDVDPENNNVMIRNPGNGEPFHFKKSDAKRIAEELSAGGSAGGSA [r18_161_TrROS] | < -1 kcal/mol | -0.626 ± 0.44 kcal/mol |
| SAGGSAGGSAMIETSVSLDPKNGLRKVTQNVTPEEYLKLTGGPPIPKENKTTVTLTKTLPVPSAGGSAGGSA [r18_327_JUSTAS] | -0.726 ± 0.16 kcal/mol | -0.265 ± 0.087 kcal/mol |
| SAGGSAGGSAMKLTKEYVFTKTITLKNGKTKTESEVLTEEVPPIPLEELIKRLGLPPEELISAGGSAGGSAG [r3_338_JUSTAS] | -0.186 ± 0.32 kcal/mol | -0.126 ± 0.44 kcal/mol |
| SAGGSAGGSAMPIPKVLVLKDEGTLEEAREAALKYVKEDEKVIVKIGDKEIVIPAEELKKKSAGGSAGGSAG [r3_50_TrMRF] | < -1 kcal/mol | -0.237 ± 0.5 kcal/mol |
| SAGGSAGGSAMTVYVPIEEVGPDENGEYDDELIRERVREEYPDEPVEEVLVEGPEEAERVARSAGGSAGGSA [r18_72_JUSTAS] | -0.384 ± 0.23 kcal/mol | -0.134 ± 0.061 kcal/mol |
| SAGGSAGGSAMVTVTILSEDTTDSPRTYTVLFPAEGKALPLPFPADASEAEVRARALELLASAGGSAGGSAG [r3_142_JUSTAS] | < -1 kcal/mol | 0.673 ± 0.15 kcal/mol |
| SAGGSAGGSANQVKVEIEIPRMKMERDPDGGYQMEMRPVKIEIEAPMPEEQADDIAKDLIKSAGGSAGGSAG [r3_487_TrROS] | 0.0639 ± 0.16 kcal/mol | 0.579 ± 0.045 kcal/mol |
| SAGGSAGGSAPEPVVAKLVEVVTLPDGTPVLLFVVDHPDGPPELRLSTDALIEGDDLVDPSSAGGSAGGSAG [r3_261_TrMRF] | -0.0131 ± 0.2 kcal/mol | 0.404 ± 0.078 kcal/mol |
| SAGGSAGGSAREELVRRAAEEGLPGVRVLAIPPGNREVPAIVEGDKVYSYDLPDDAEVVVASAGGSAGGSAG [r3_244_TrMRF] | -0.0679 ± 0.086 kcal/mol | 0.408 ± 0.08 kcal/mol |
| SAGGSAGGSARIRFPNGYEIEVPRKRNPDGNLEITIESRNPDNPEHREMAKKIARDIADELSAGGSAGGSAG [r3_163_TrROS] | -0.526 ± 0.17 kcal/mol | -0.0805 ± 0.06 kcal/mol |
| SAGGSAGGSARTVPPDLLVRVETPDEERIVPVSELDAFFARHPDVPWRDITVVDPATGAARSAGGSAGGSAG [r3_134_JUSTAS] | -0.675 ± 0.37 kcal/mol | 0.539 ± 0.11 kcal/mol |
| SAGGSAGGSASEEEKPPKIKRVTINIPEEELRERFPGNPEWAENIAREAAKEGFDEVEIDINSAGGSAGGSA [r18_441_TrROS] | 0.521 ± 0.17 kcal/mol | 0.942 ± 0.12 kcal/mol |
| SAGGSAGGSASLSLDQVGTVTFPANGAPALVTRLPDGSVALYFPATGRVLYLDGPNDVTPDSAGGSAGGSAG [r3_96_TrMRF] | 0.552 ± 0.075 kcal/mol | 0.97 ± 0.059 kcal/mol |
| SAGGSAGGSASYSVTISPEERIEPVVDYKTGERRLVERRRVVVTADPKLSPALKAAILAALSSAGGSAGGSA [r18_438_JUSTAS] | -0.237 ± 0.2 kcal/mol | 0.144 ± 0.2 kcal/mol |
| SAGGSAGGSAWRTIEITWPPSNPEEFIDEISKDFGFTVEGEREPNGYHTIDFQLPPGMKIVSAGGSAGGSAG [r3_457_TrROS] | -0.224 ± 0.2 kcal/mol | -0.137 ± 0.23 kcal/mol |
| SAGGSAGGSDDAVTFTFTSAPTRLLYLDNPKTFPGSATVTLPAGNPDEFRIERFAPDTAELKPSAGGSAGGS [r20_150_TrMRF] | < -1 kcal/mol | -0.427 ± 0.62 kcal/mol |
| SAGGSAGGSEEIYIKVTVEHPNGEKRTHEIERIRDKDGLPIKQIAKELAQEPNVRDVDVEIVKSAGGSAGGS [r12_199_TrROS] | -0.56 ± 0.15 kcal/mol | -0.316 ± 0.072 kcal/mol |
| SAGGSAGGSEEVVRTETSTSTTPDGKRVKTTTTTLPTPTTVTTTTVYAPGGEVLETTTTTTAASAGGSAGGS [r12_727_JUSTAS] | < -1 kcal/mol | -0.123 ± 0.2 kcal/mol |
| SAGGSAGGSELPPGPYLVTIPADPEPVVAPATFAPDGTVRVRVPEPGEEITIPRDQAEIFPVESAGGSAGGS [r12_782_JUSTAS] | -0.0148 ± 0.28 kcal/mol | 0.944 ± 0.058 kcal/mol |
| SAGGSAGGSGEYVVVLLREELPDEERYLRRPVPLDAALEALKEGKLVRSSEGREWRFAEYRPESAGGSAGGS [r12_432_TrMRF] | -0.218 ± 0.28 kcal/mol | -0.0188 ± 0.33 kcal/mol |
| SAGGSAGGSGMERVEAVREALVPGDPDAVPAPITYDPQTGKLTYSVSDPRVAAALAADPLVSLSAGGSAGGS [r12_623_JUSTAS] | -0.309 ± 0.19 kcal/mol | 0.333 ± 0.11 kcal/mol |
| SAGGSAGGSGMNVKTIKIYSPEGGETTVPVTGTTVTIGGETVTVTSDVVVPVPPTIKSIEVVGSAGGSAGGS [r12_779_JUSTAS] | 0.277 ± 0.082 kcal/mol | 0.769 ± 0.02 kcal/mol |

| Sequence | folding stability dG unfold [1] | folding stability dG unfold [2] |
| --- | --- | --- |
| SAGGSAGGSGPALANIPPDAKVTVTPLPDDSYLVDIYYPNGPVEYLDVPVGDKWVKFEVEPEKSAGGSAGGS [r20_50_TrMRF] | < -1 kcal/mol | -0.749 ± 0.24 kcal/mol |
| SAGGSAGGSKKIVLVLKVKKEKAKEKVEKAKKELEKALPKDYKIKSIEVKYDPETDKVIIVADSAGGSAGGS [r12_308_TrMRF] | -0.0532 ± 0.28 kcal/mol | 0.376 ± 0.49 kcal/mol |
| SAGGSAGGSKKWIPIDSPSEIEDLLEKAPPGGKLKIYNNNGQTEKVPPNEIERTPNHWWIEVDSAGGSAGGS [r12_907_TrROS] | -0.463 ± 0.45 kcal/mol | 0.314 ± 0.17 kcal/mol |
| SAGGSAGGSKWKISVHPPNGNSWKIDPGDTIKELVDQMSKENGWPYHIHVSKEEAEKLGLKPVSAGGSAGGS [r12_379_TrROS] | -0.0115 ± 0.16 kcal/mol | 0.356 ± 0.13 kcal/mol |
| SAGGSAGGSLRPDEEVVAILPNGEKVPFKVESVEVSPDGSVKANLTLPGGKSLGPANLVFKPESAGGSAGGS [r12_735_TrMRF] | -0.629 ± 0.22 kcal/mol | -0.00357 ± 0.078 kcal/mol |
| SAGGSAGGSMKEGTFNSEEEVEELKKKYPNVEVYEDPETNTIHVKIKEESEKEYEEENIKKLKSAGGSAGGS [r20_191_JUSTAS] | < -1 kcal/mol | -0.897 ± 0.6 kcal/mol |
| SAGGSAGGSMLRVEVTLENGEKIEVEIEVPPGEELTLDEILAELKEKYPDLKVTEIKIEFLEPSAGGSAGGS [r12_262_TrROS_Hall] | 3.27 ± 0.28 kcal/mol | 2.63 ± 0.22 kcal/mol |
| SAGGSAGGSMTITIKLDNVKEVEVKFNPETNVVEIKVKVDGKEYVIRMEFVDGKIYITEIKPLSAGGSAGGS [r20_60_TrROS_Hall] | 4.06 ± 0.28 kcal/mol | 3.68 ± 0.34 kcal/mol |
| SAGGSAGGSMTIVNPGTPETLAATVKETIKAGKKVKVIYVSPDNPEPVAEAEVEGTAEELEKESAGGSAGGS [r12_241_TrMRF] | -0.49 ± 0.29 kcal/mol | 0.193 ± 0.11 kcal/mol |
| SAGGSAGGSMTVDTTYDPSTDRVTLTVTIPAPDGSELVRTVQSTGDPEAAAAAAAAAVAAAAASAGGSAGGS [r20_33_JUSTAS] | < -1 kcal/mol | -0.252 ± 0.14 kcal/mol |
| SAGGSAGGSPAEITREEAVELAYETLPATEPAVFVFADPRLLVVYPDGADPSRNRVVEVPLLDSAGGSAGGS [r12_648_TrMRF] | -0.741 ± 0.22 kcal/mol | -0.339 ± 0.17 kcal/mol |
| SAGGSAGGSPGVRVKPVGDHYVVEIPLPPSVPLGRAVFEVEGGYAETVAVDPERGIATVRVPLSAGGSAGGS [r12_675_TrMRF] | -0.352 ± 0.15 kcal/mol | 0.091 ± 0.11 kcal/mol |
| SAGGSAGGSPKPKRRTIEFPLKVPPGMSPEDVADELKQQPGFEIDEIDEVDPDEGWVKISVELSAGGSAGGS [r12_712_TrROS] | < -1 kcal/mol | -0.377 ± 0.13 kcal/mol |
| SAGGSAGGSPMPILSASADPGPDGTRTLTLRLGDKTVTFTVPASRPALIPAPADSVISLDPAGSAGGSAGGS [r12_373_TrMRF] | -0.64 ± 0.16 kcal/mol | -0.467 ± 0.14 kcal/mol |
| SAGGSAGGSPPENMKIKIYNPNGEEQTIPVEGVKIRFNGDTHEIPPGDSIPIPPGIDAIEIEKSAGGSAGGS [r12_779_TrROS] | 0.0926 ± 0.22 kcal/mol | 0.512 ± 0.084 kcal/mol |
| SAGGSAGGSPPESRPFTTDPGPSGEYTAKLLPPDGSSEEVVLPVSQPRTLNVPKDWSFEVLPPSAGGSAGGS [r12_517_JUSTAS] | -0.338 ± 0.12 kcal/mol | 0.157 ± 0.11 kcal/mol |
| SAGGSAGGSPPPVPLSTLAVEPDPATGGKFTVLLAYPDGSTRELTSEEEAAALPNFDLERRLASAGGSAGGS [r20_192_JUSTAS] | -0.0474 ± 0.21 kcal/mol | 0.443 ± 0.2 kcal/mol |
| SAGGSAGGSQKPTIEKEGGRYYIRNPDNGKSFPINIEREDNEWKFEFGDGEITIPGEFEIQRRSAGGSAGGS [r12_683_TrROS] | < -1 kcal/mol | -0.308 ± 0.14 kcal/mol |
| SAGGSAGGSSEVIEKLLELNPDVEVVSVTPTPNGVTVTVATKEGGEETVSSAELEKLGVKIRLSAGGSAGGS [r12_3_JUSTAS] | 0.1 ± 0.28 kcal/mol | 0.282 ± 0.1 kcal/mol |
| SAGGSAGGSTADALKDLPPGAKIEVEPHPIPNEDGWVYRQHYIKIEDPNKTVELPVIIPIPLPSAGGSAGGS [r12_892_TrROS] | -0.0244 ± 0.37 kcal/mol | -0.0369 ± 0.39 kcal/mol |
| SAGGSAGGTREIELPGMKISVQKDPNQGKKKIEVEFPNGEEFTMDPGKPPDDLPPPFRRALKEISAGGSAGG [r6_749_TrROS] | < -1 kcal/mol | -0.176 ± 0.31 kcal/mol |
| SAGGSAGGWIKLDGKEVYIVIPDGNPEQIAKELKEQFPNGNIKPHPGQNAEEAAKKNKRVIWIPSAGGSAGG [r6_680_TrROS] | 0.284 ± 0.37 kcal/mol | 0.771 ± 0.16 kcal/mol |
| SAGGSAGMPRLVEIEVPLPPDAKDPEIKEKIIKTPEGYEYKTIKETSDPSPSSLRKIIMEKKPLKKSAGGSA [r15_852_JUSTAS] | < -1 kcal/mol | -0.197 ± 0.99 kcal/mol |
